Substrate in this series: O=[N+]([O-])c1ccc(O[C@@H]2O[C@H](CO)[C@@H](O)[C@H](O)[C@H]2O)cc1
Nature of the series: purified protein.

[1] abbreviates: enzyme storage buffer (HEPES elution buffer), ten biological replicates.

Changes are numbered by the printed parent chain. Numbers in names are those of the source.

B1: β-glucosidase B (BglB) (Paenibacillus polymyxa) (protein)
chain: MSENTFIFPATFMWGTSTSSYQIEGGTDEGGRTPSIWDTFCQIPGKVIGGDCGDVACDHFHHFKEDVQLMKQLGFLHYRFSVAWPRIMPAAGIINEEGLLFYEHLLDEIELAGLIPMLTLYHWDLPQWIEDEGGWTQRETIQHFKTYASVIMDRFGERINWWNTINEPYCASILGYGTGEHAPGHENWREAFTAAHHILMCHGIASNLHKEKGLTGKIGITLNMEHVDAASERPEDVAAAIRRDGFINRWFAEPLFNGKYPEDMVEWYGTYLNGLDFVQPGDMELIQQPGDFLGINYYTRSIIRSTNDASLLQVEQVHMEEPVTDMGWEIHPESFYKLLTRIEKDFSKGLPILITENGAAMRDELVNGQIEDTGRHGYIEEHLKACHRFIEEGGQLKGYFVWSFLDNFEWAWGYSKRFGIVHINYETQERTPKQSALWFKQMMAKNGF
What is called Km is the concentration of substrate that gives half-maximal velocity. A word on the kcat: it is the maximal rate divided by the concentration of active sites. As to B1, under setting [1], the Km worked out at 5.0 ± 0.2 mM and the kcat is 14.7 ± 0.167 s⁻¹.

B2: β-glucosidase B (BglB) (Paenibacillus polymyxa; R243A) (protein)
chain: B1 chain with R243A
Broadly, the kcat/Km is the turnover number divided by the Michaelis constant. Regarding B2, where the note is “enzyme storage buffer”, the Km was found to be 19.46 ± 1.17 mM, the kcat worked out at 184 s⁻¹ and the kcat/Km was 9430 ± 606 M⁻¹ s⁻¹.

B3: β-glucosidase B (BglB) (Paenibacillus polymyxa; E225A) (protein)
chain: B1 chain with E225A
As for B3, under “enzyme storage buffer”, the Km was 0.63 ± 0.15 mM, the kcat worked out at 1.5 s⁻¹ and the kcat/Km stood at 2390 ± 602 M⁻¹ s⁻¹.

The record behind these values is publication PMC4729467, “Kinetic Characterization of 100 Glycoside Hydrolase Mutants Enables the Discovery of Structural Features Correlated with Kinetic Constants” (PLoS ONE, 2016).
